Measurements as given in paper PMC8050843.

Target: Ndc80C-GFP (S. cerevisiae Ndc80 complex with GFP at the C terminus of Spc24) (S. cerevisiae) (UniProt P40460)
Sequence of UniProt P40460 (P40460 whole entry, chain 1 of 4): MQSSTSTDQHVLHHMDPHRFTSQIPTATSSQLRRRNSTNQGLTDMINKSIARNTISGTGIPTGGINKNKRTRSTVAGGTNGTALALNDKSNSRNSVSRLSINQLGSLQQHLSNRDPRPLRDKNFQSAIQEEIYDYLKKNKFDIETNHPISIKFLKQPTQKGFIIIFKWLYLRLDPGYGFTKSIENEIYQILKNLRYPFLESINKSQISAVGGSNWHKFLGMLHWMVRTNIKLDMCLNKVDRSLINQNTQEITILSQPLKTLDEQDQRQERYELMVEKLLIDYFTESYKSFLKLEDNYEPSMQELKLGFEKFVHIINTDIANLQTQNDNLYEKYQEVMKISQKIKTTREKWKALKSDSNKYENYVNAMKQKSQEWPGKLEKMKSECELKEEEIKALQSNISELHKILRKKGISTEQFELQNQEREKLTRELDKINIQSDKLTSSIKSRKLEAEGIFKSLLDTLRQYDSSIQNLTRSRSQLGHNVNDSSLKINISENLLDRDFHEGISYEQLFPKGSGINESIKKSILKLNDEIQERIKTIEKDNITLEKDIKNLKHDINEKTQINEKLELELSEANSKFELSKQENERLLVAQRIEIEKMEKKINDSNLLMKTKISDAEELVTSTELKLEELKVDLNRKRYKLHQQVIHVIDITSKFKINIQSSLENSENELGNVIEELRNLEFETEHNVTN
Sequence of UniProt P40460 (P33895 whole entry, chain 2 of 4, further chain): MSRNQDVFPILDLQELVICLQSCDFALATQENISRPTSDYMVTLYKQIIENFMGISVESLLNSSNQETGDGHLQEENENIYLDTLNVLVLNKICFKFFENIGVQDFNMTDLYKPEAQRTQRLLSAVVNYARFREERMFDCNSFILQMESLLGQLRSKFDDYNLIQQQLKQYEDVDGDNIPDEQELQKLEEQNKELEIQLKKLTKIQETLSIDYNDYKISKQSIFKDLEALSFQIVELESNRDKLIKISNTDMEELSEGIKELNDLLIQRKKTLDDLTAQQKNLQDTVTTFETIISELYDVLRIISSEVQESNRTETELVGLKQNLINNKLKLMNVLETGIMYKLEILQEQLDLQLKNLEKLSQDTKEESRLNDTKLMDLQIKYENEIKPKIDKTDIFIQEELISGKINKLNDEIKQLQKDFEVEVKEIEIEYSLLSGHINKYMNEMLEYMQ
Sequence of UniProt P40460 (Q04477 whole entry, chain 3 of 4, further chain): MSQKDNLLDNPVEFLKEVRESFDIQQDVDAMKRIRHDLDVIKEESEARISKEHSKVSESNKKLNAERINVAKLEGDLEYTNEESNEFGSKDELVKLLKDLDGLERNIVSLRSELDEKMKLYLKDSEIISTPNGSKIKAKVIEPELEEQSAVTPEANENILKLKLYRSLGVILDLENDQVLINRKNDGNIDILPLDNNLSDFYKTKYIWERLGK
Sequence of UniProt P40460 (P40014 whole entry, chain 4 of 4, further chain): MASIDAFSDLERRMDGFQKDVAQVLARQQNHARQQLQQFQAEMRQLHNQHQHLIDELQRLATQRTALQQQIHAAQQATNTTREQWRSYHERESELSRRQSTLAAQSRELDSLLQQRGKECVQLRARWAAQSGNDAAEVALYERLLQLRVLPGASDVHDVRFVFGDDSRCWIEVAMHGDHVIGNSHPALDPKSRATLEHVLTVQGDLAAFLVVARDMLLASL

detachment of the Ndc80C nanobead from the MT plus end following transient end-on attachment (end-on drop-off) in the absence of Dam1C, against its presence: 31%
Substance: Dam1C (S. cerevisiae Dam1 complex, without GFP) (from UniProt P53267 1-343; Q12248 1-94; P36131 1-295)
